Assay results: PMC10361598 (Science Advances, 2023)
Like-named read-outs stand apart in the source and are kept apart here.

Tests used:
CXCL12 [1] = target: T1, CXCL12 (UniProt P48061 22-93); assay: graphene field-effect transistor array
CXCL12 [2] = target: T1, CXCL12; assay: graphene field-effect transistor array; remark: listed apart in the source

T1 sequence (P48061 22-93): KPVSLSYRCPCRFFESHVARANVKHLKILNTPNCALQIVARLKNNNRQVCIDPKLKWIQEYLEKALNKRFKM

- Kd (CXCL12 [1]): 24.8 ± 13 nM
- Kd (CXCL12 [2]): 20.1 ± 9.1 nM
B1: CXCR4^QTY-Fc (Fc fusion)
chain: PSTCSKPTCPPPELLGGPSVFIFPPKPKDTLMISRTPEVTCVVVDVSQDDPEVQFTWYINNEQVRTARPPLREQQFNSTIRVVSTLPITHQDWLRGKEFKCKVHNKALPAPIEKTISKARGQPLEPKVYTMGPPREELSSRSVSLTCMINGFYPSDISVEWEKNGKAEDNYKTTPAVLDSDGSYFLYNKLSVPTSEWQRGDVFTCSVMHEALHNHYTQKSISRSPGK
modifications: RED-NHS fluorescent label (Monolith NT Protein Labeling Kit RED-NHS), in the MST only
